Laboratory results published in US20220332804A1 (CSL INNOVATION, published 2022).

How the values were obtained:
Test in all cases: SPR, mAb captured, C2 mutant analyte;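 also: Anti-C2 mAbs captured on goat anti-human IgG Biacore CM5 chips, alanine or serine C2 surface mutants flowed over at 37 °C, double-referenced sensorgrams fitted to a 1:1 binding model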
[1] = molecular target: T1, human C2 S456A (human, UniProt P06681 21-752)
T1 sequence: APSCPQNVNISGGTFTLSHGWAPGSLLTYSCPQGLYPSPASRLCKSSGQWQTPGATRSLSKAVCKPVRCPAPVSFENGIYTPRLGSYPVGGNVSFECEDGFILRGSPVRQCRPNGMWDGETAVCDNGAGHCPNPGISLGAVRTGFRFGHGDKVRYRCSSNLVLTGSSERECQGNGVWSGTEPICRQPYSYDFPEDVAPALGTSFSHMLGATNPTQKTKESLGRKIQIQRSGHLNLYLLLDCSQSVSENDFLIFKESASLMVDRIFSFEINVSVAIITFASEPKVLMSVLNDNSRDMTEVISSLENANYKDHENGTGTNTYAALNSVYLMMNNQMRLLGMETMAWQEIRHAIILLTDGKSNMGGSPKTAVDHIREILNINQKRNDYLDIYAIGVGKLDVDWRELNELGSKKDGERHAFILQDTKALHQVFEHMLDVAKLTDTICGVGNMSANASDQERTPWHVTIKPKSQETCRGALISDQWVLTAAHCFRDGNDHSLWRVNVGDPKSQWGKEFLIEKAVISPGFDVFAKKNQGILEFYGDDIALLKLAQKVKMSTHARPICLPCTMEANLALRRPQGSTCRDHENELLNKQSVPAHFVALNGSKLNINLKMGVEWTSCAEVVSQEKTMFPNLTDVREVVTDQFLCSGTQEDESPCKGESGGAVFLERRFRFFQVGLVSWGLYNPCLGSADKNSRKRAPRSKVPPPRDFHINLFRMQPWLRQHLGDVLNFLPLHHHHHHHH

[2] = molecular target: T2, human C2 S473A (human, UniProt P06681 21-752)
T2 sequence: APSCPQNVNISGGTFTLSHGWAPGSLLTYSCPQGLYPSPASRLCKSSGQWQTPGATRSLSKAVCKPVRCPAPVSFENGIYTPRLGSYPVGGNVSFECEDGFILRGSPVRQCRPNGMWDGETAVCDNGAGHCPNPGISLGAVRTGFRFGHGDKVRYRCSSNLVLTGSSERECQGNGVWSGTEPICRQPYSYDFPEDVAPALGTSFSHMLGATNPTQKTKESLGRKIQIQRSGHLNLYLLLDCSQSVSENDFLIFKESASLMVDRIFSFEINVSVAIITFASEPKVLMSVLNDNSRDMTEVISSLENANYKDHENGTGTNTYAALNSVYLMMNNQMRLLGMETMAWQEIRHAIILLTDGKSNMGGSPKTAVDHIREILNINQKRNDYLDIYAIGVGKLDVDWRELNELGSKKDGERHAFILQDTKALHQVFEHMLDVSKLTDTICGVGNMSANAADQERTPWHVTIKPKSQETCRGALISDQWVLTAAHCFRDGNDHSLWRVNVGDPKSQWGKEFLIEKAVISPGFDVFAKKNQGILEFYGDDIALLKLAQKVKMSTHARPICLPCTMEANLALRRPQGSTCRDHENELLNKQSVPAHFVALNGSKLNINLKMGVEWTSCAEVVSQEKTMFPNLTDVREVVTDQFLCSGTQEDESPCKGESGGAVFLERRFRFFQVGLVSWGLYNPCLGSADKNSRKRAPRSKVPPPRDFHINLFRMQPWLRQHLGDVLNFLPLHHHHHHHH

[3] = molecular target: T3, human C2 N380A (human, UniProt P06681 21-752)
T3 sequence: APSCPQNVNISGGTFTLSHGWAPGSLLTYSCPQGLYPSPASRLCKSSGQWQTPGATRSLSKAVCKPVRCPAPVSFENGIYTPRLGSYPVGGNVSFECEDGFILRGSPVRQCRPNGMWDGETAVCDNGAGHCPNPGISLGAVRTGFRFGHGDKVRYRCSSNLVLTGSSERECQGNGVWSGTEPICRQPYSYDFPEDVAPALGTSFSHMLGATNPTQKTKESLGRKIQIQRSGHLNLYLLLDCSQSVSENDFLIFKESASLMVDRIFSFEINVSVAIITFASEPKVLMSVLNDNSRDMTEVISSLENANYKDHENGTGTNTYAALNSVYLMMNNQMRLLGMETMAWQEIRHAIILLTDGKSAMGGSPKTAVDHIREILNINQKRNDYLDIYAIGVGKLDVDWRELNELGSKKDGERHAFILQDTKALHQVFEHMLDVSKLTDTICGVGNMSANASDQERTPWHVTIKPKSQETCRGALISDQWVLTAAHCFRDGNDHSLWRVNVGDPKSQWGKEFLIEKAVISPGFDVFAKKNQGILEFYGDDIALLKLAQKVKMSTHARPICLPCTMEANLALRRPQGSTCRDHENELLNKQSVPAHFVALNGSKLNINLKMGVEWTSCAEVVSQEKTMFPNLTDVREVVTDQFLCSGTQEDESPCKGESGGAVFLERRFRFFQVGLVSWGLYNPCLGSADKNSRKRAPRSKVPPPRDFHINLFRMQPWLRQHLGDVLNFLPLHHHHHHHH

[4] = molecular target: T4, human C2 Y328A (human, UniProt P06681 21-752)
T4 sequence: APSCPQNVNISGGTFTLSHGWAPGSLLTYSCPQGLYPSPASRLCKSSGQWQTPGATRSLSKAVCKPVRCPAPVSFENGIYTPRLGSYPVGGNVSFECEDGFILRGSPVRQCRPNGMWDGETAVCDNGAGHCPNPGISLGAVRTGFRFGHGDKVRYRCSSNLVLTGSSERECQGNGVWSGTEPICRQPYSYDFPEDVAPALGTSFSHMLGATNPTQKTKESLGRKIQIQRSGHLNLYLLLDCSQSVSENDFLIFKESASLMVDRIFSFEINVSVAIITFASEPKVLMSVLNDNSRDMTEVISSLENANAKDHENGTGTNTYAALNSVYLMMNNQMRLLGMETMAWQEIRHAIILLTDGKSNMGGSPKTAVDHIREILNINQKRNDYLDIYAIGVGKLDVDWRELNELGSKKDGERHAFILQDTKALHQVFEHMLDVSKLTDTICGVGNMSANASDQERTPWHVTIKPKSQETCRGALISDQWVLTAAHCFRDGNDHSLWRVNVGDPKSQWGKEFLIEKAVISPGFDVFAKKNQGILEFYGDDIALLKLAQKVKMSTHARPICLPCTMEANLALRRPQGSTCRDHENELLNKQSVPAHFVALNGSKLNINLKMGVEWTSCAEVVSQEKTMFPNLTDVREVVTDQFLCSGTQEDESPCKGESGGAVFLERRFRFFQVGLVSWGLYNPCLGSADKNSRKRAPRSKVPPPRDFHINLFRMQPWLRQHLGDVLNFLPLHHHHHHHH

B1: RF16-214 (antibody, V domains shown)
VH: EVQLLESGGGLVQPGGSLRLSCAASGFTFSWYQMMWVRQAPGKGLEWVSRIYPSGGGTAYADSVKGRFTISRDNSKNTLYLQMNSLRAEDTAVYYCARDAGYGDNWGQGTLVTVSS
VL: QSALTQPPSVSVSPGQTASITCSGDKLGEKYASWYQQKAGQSPVMVIYQDRKRPSGIPERFSGSNSGNTATLTISGTQAMDEADYYCQAWDTRAVVFGGGTKLTVLG
Kd [1]: 157 nM | Kd [2]: 68.7 nM | Kd [3]: 58.8 nM | Kd [4]: 196 nM
